{
  "source": "patent US12723255B2",
  "about": "“Herbicide tolerance genes and methods of use thereof” (priority 2014, dated 2026)",
  "key": {"[1]": {"assay": "enzyme activity assay at 23° C. with purified enzyme", "format": "biochemical", "conditions": "for activity with fluroxypyr as the substrate / activity with triclopyr as the substrate: not robust enough to quantify; for MCPA Km / MCPA Vmax / Mecoprop Km: percentage of wild-type RdpA, set at 100%", "method": "The enzyme activity of MON-HT protein variants with triclopyr, fluroxypyr, MCPA, MCPB, mecoprop, as substrates was determined using the enzyme activity assay conducted at 23° C. with purified enzyme. The activity was recorded as the maximum activity as a percentage of the wild-type RdpA enzyme's activity, which was set at 100%. […] The enzymatic activity with mecoprop as a substrate was reduced for each of the MON-HT1, MON-HT13, MON-HT15, and MON-HT17 variants compared to the wild-type RdpA enzyme. An unexpected result was that enzymatic activity with MCPA as a substrate was roughly 6-fold greater for MON-HT1, and approximately 10-fold greater for MON-HT13, MON-HT15, and MON-HT17 compared to the wild-type RdpA enzyme."}, "[2]": {"tested_on": "transgenic soybean plants", "assay": "R0 soybean 2,4-D spray test of 2,4-D optimized variants", "format": "in vivo", "conditions": "for tolerance to 2,4-D treatment: 2× application rate, soy", "text": "An additional five engineered proteins optimized for activity for 2,4-D were then selected for analysis in transgenic soybean. DNA constructs were produced for expressing MON-HT13 (SEQ ID NO:47), MON-HT14 (SEQ ID NO:48), MON-HT15 (SEQ ID NO:49), MON-HT17 (SEQ ID NO:51), and MON-HT18 (SEQ ID NO:52) with codon usage optimized for dicot expression. The operably linked expression elements (promoter, leader, intron, CTP, and 3′UTR) were identical in all of the constructs. Leaf samples were taken from R0 plantlets and single copy plants were identified using a PCR-based assay. When the single-copy R0 plants had approximately two to three trifoliate leaves, they were treated with either 1.5 lb ae/acre (2×) or 3.0 lb ae/acre (4×) of 2,4-D. Seven days after herbicide application, the plants were scored for herbicide injury based on the percent area of the plant showing injury, as indicated above."}, "[3]": {"assay": "kinetic analysis, non-endpoint assay at 23° C.", "format": "biochemical", "conditions": "for Vmax 2,4-D / Km / Vmax Quizalofop: Table 10 series, unit as defined", "text": "For the fifth screen, recombinant protein for each of the eleven engineered proteins was produced and purified for an in-depth biochemical analysis. This biochemical analysis included: (1) kinetic analysis (Vmax and Km), (2) activity assays over a range of temperatures, (3) protein melting analysis, (4) activity on additional AOPP herbicides substrates, and (5) mass spectrometry analysis on peptides to confirm identity. The biochemical analyses were also done with purified recombinant wild-type protein and MON-HT55 protein for comparison. For the kinetic analysis, a non-endpoint assay was conducted at 23° C. with either quizalofop-P or 2,4-D as substrate. The recombinant proteins for these assays were produced in bacteria and purified using a 6-His tag fused at the C-terminal end of the protein. Results of the kinetic analysis with either quizalofop-P or 2,4-D as substrate are presented for ten of the engineered proteins, wild-type protein, and MON-HT55 protein in Table 7 (standard error is shown in parenthetical). Vmax is expressed as specific activity, umol herbicide product mg enzyme-1 min-1; Km expressed as mM herbicide substrate. […] The differentiation of the protein kinetics for MON-HTI and MON-HT7 were surprising because there are only four amino acid differences between MON-HT1 and MON-HT7. Specifically, MON-HT1 has the following amino acids at the indicated position: 182; F105; T112; and V273, and MON-HT7 has the following amino acids at the indicated position: L82; V105; S112; and A273.\nKinetic analysis using a non-endpoint assay was conducted at 23° C. with either quizalofop-P or 2,4-D as substrate, as detailed above for purified protein of the wild-type enzyme, MON-HT1, MON-HT13, MON-HT15, and MON-HT17."}, "[4]": {"format": "physicochemical", "conditions": "Table 11 series", "method": "A protein melting analysis was also conducted. For the protein melting determinations, purified enzyme was added to 96-well microtiter plates in standard storage buffer (30 mM Tris pH7.5, 150 mM NaCl) with or without 50 uM Fe2+ and 1.0 mM aKG. Protein unfolding was then detected with SYPRO® orange protein gel stain (Invitrogen™ catalog #S6651, Life Technologies, Grand Island, NY) in a BioRad CFX96™ Real time PCR machine (BioRad, Hercules, CA) with readings taken between 10° C. to 95° C. in 0.5° C. steps. […] In contrast, 50 uM Fe2+ and 1.0 mM aKG had little effect on the stability of any of the engineered proteins. MON-HT55, MON-HT3, MON-HT4, MON-HT6, and MON-HT10 had melting temperatures in the range of 41° C. to 48° C., which is below the melting temperature of the wild-type enzyme. MON-HT1, MON-HT2, MON-HT5, MON-HT7, MON-HT8, and MON-HT9 had melting temperatures between 58° C. and 67° C., which is 8° C. to 17° C. higher than the wild-type enzyme. For MON-HT7 and MON-HT1, the difference in melting point was 11° C. in buffer without Fe2+ and aKG and 8° C. in buffer with Fe2+ and aKG. This was surprising since there are only four amino acid differences between the two enzymes.\nA protein melting analysis was conducted as detailed above. The melting temperatures of MON-HT13, MON-HT15, and MON-HT17 was similar to the melting temperature of MON-HT1 with T1/2 in buffer in the range of 55-58° C., and with T1/2 in buffer plus Fe2+ and aKG in the range of 60-62° C."}, "[5]": {"conditions": "2,4-D rate 2X (1.5 lb ae/acre), single copy R0 soy, seven days after application"}, "[6]": {"conditions": "23° C., read-out: Km Quizalofop"}},
  "note": "Read-outs that look alike come from different tables or passages of the source.",
  "data": [
    {"molecule": "MON-HT13: engineered oxygenase protein, amino acid sequence SEQ ID NO:47 (protein) MHAALTPLTNKYRFIDVQPLTGVLGAEITGVDLREPLDDSTWNEILDAFHTYQVIYFPGQAITNEQHIAFSRRFGPVDPVPILKSIEGYPEVQMIRREANESSRYIGDDWHADSTFLDAPPAAVVMRAIEVPEYGGDTGFLSMYSAWETLSPTMQATIEGLNVVHSATKVFGSLYQATNWRFSGTSVKVMDVDAGDRETVHPLVVTHPVTGRRALYCNQVYCQKIQGMTDAESKSLLQFLYEHATQFDFTCRVRWKKDQVLVWDNLCTMHRAVPDYAGKFRYLTRTTVAGDKPSR", "values": [
      {"measurement": "activity with MCPB as the substrate", "setting": "[1]", "value": "no detectable activity"},
      {"measurement": "enzymatic activity with MCPA greater compared to the wild-type RdpA enzyme", "setting": "[1]", "value": "approximately 10 fold"},
      {"measurement": "activity with fluroxypyr as the substrate", "setting": "[1]", "value": "detectable activity"},
      {"measurement": "activity with triclopyr as the substrate", "setting": "[1]", "value": "detectable activity"},
      {"measurement": "MCPA Km", "setting": "[1]", "value": 68, "unit": "%"},
      {"measurement": "MCPA Vmax", "setting": "[1]", "value": 1800, "unit": "%"},
      {"measurement": "Mecoprop Km", "setting": "[1]", "value": 92, "unit": "%"},
      {"measurement": "Events with 20-50% injury", "setting": "[2]; [5]", "value": 1},
      {"measurement": "Events with <20% injury", "setting": "[2]; [5]", "value": 12},
      {"measurement": "tolerance to 2,4-D treatment", "setting": "[2]", "value": "excellent tolerance"},
      {"measurement": "enzymatic activity with quizalofop compared with MON-HT1", "setting": "[3]", "value": "roughly similar to the activity of MON-HT1"},
      {"measurement": "Vmax 2,4-D", "setting": "[3]", "value": "3.38 (0.05) umol herbicide product mg enzyme-1 min-1"},
      {"measurement": "Km", "setting": "[3]; read-out: Km 2,4-D", "value": 80, "unit": "µM"},
      {"measurement": "Vmax Quizalofop", "setting": "[3]; 23° C.", "value": "1.51 (0.05) umol herbicide product mg enzyme-1 min-1"},
      {"measurement": "Km", "setting": "[3]; [6]", "value": 120, "unit": "µM"},
      {"measurement": "Melting temp, Buffer", "setting": "[4]", "value": 57, "unit": "°C"},
      {"measurement": "Melting temp, Buffer plus Fe2+ and aKG", "setting": "[4]", "value": 62, "unit": "°C"}
    ]},
    {"molecule": "MON-HT17: engineered oxygenase protein, amino acid sequence SEQ ID NO:51 (protein) MHAALTPLTNKYRFIDVQPLTGVLGAEITGVDLREPLDDSTWNEILDAFHTYQVIYFPGQAITNEQHIAFSRRFGPVDPVPILKSIEGYPEVQMIRREANESSRYIGDDWHADSTFLDAPPAAVVMRAIEVPEYGGDTGFLSMYSAWETLSPTMQATIEGLNVVHSATKVFGSLYQATNWRFSNTSVKVMDVDAGDRETVHPLVVTHPVTGRRALYCNQVYCQKIQGMTDAESKSLLQFLYEHATQFDFTCRVRWKKDQVLVWDNLCTMHRAVPDYAGKFRYLTRTTVAGDKPSR", "values": [
      {"measurement": "activity with MCPB as the substrate", "setting": "[1]", "value": "no detectable activity"},
      {"measurement": "enzymatic activity with MCPA greater compared to the wild-type RdpA enzyme", "setting": "[1]", "value": "approximately 10 fold"},
      {"measurement": "activity with fluroxypyr as the substrate", "setting": "[1]", "value": "detectable activity"},
      {"measurement": "activity with triclopyr as the substrate", "setting": "[1]", "value": "detectable activity"},
      {"measurement": "MCPA Km", "setting": "[1]", "value": 62, "unit": "%"},
      {"measurement": "MCPA Vmax", "setting": "[1]", "value": 1400, "unit": "%"},
      {"measurement": "Mecoprop Km", "setting": "[1]", "value": 65, "unit": "%"},
      {"measurement": "Events with <20% injury", "setting": "[2]; [5]", "value": 12},
      {"measurement": "tolerance to 2,4-D treatment", "setting": "[2]", "value": "excellent tolerance"},
      {"measurement": "enzymatic activity with quizalofop compared with MON-HT1", "setting": "[3]", "value": "roughly similar to the activity of MON-HT1"},
      {"measurement": "Vmax 2,4-D", "setting": "[3]", "value": "2.91 (0.04) umol herbicide product mg enzyme-1 min-1"},
      {"measurement": "Km", "setting": "[3]; read-out: Km 2,4-D", "value": 70, "unit": "µM"},
      {"measurement": "Vmax Quizalofop", "setting": "[3]; 23° C.", "value": "1.53 (0.05) umol herbicide product mg enzyme-1 min-1"},
      {"measurement": "Km", "setting": "[3]; [6]", "value": 140, "unit": "µM"},
      {"measurement": "Melting temp, Buffer", "setting": "[4]", "value": 57, "unit": "°C"},
      {"measurement": "Melting temp, Buffer plus Fe2+ and aKG", "setting": "[4]", "value": 61, "unit": "°C"}
    ]},
    {"molecule": "MON-HT15: engineered oxygenase protein, amino acid sequence SEQ ID NO:49 (protein) MHAALTPLTNKYRHIDVQPLTGVLGAEITGVDLREPLDDSTWNEILDAFHTYQVIYFPGQAITNEQHIAFSRRFGPVDPVPILKSIEGYPEVQMIRREANESSRYIGDDWHADSTFLDAPPAAVVMRAIEVPEYGGDTGFLSMYSAWETLSPAMQATIEGLNVVHSATKVFGSLYQATNWRFSNTSVKVMDVDAGDRETVHPLVVTHPVTGRRALYCNQIYCQKIQGMTDAESKSLLQFLYEHATQFDFTCRVRWKKDQVLVWDNLCTMHRAVPDYAGKFRYLTRTTVAGDKPSR", "values": [
      {"measurement": "activity with MCPB as the substrate", "setting": "[1]", "value": "no detectable activity"},
      {"measurement": "enzymatic activity with MCPA greater compared to the wild-type RdpA enzyme", "setting": "[1]", "value": "approximately 10 fold"},
      {"measurement": "activity with fluroxypyr as the substrate", "setting": "[1]", "value": "detectable activity"},
      {"measurement": "activity with triclopyr as the substrate", "setting": "[1]", "value": "detectable activity"},
      {"measurement": "MCPA Km", "setting": "[1]", "value": 59, "unit": "%"},
      {"measurement": "MCPA Vmax", "setting": "[1]", "value": 1300, "unit": "%"},
      {"measurement": "Mecoprop Km", "setting": "[1]", "value": 57, "unit": "%"},
      {"measurement": "Events with <20% injury", "setting": "[2]; [5]", "value": 5},
      {"measurement": "tolerance to 2,4-D treatment", "setting": "[2]", "value": "excellent tolerance"},
      {"measurement": "enzymatic activity with quizalofop compared with MON-HT1", "setting": "[3]", "value": "roughly similar to the activity of MON-HT1"},
      {"measurement": "Vmax 2,4-D", "setting": "[3]", "value": "3.53 (0.04) umol herbicide product mg enzyme-1 min-1"},
      {"measurement": "Km", "setting": "[3]; read-out: Km 2,4-D", "value": 70, "unit": "µM"},
      {"measurement": "Vmax Quizalofop", "setting": "[3]; 23° C.", "value": "1.52 (0.06) umol herbicide product mg enzyme-1 min-1"},
      {"measurement": "Km", "setting": "[3]; [6]", "value": 120, "unit": "µM"},
      {"measurement": "Melting temp, Buffer", "setting": "[4]", "value": 55, "unit": "°C"},
      {"measurement": "Melting temp, Buffer plus Fe2+ and aKG", "setting": "[4]", "value": 60, "unit": "°C"}
    ]}
  ]
}
